This note sets out measurements from US20030143712A1 (J DAVID GLADSTONE INSTITUTES, published 2003).

B2: endogenous HDAC3 (enzyme, UniProt O15379 1-428, looked up)
chain: MAKTVAYFYDPDVGNFHYGAGHPMKPHRLALTHSLVLHYGLYKKMIVFKPYQASQHDMCRFHSEDYIDFLQRVSPTNMQGFTKSLNAFNVGDDCPVFPGLFEFCSRYTGASLQGATQLNNKICDIAINWAGGLHHAKKFEASGFCYVNDIVIGILELLKYHPRVLYIDIDIHHGDGVQEAFYLTDRVMTVSFHKYGNYFFPGTGDMYEVGAESGRYYCLNVPLRDGIDDQSYKHLFQPVINQVVDFYQPTCIVLQCGADSLGCDRLGCFNLSIRGHGECVEYVKSFNIPLLVLGGGGYTVRNVARCWTYETSLLVEEAISEELPYSEYFEYFAPDFTLHPDVSTRIENQNSRQYLDQIRQTIFENLKMLNHAPSVQIHDVPADLLTYDRTDEADAEERGPEENYSRPEAPNEFYDGDHDNDKESDVEI
notes: SupT1 and 293 are human cell lines
B3: GST-HDAC4(aa 612-1084) (enzyme, human, UniProt P56524 612-1084, looked up)
chain: MEAAGIPVSFGGHRPLSRAQSSPASATFPVSVQEPPTKPRFTTGLVYDTLMLKHQCTCGSSSSHPEHAGRIQSIWSRLQETGLRGKCECIRGRKATLEELQTVHSEAHTLLYGTNPLNRQKLDSKKLLGSLASVFVRLPCGGVGVDSDTIWNEVHSAGAARLAVGCVVELVFKVATGELKNGFAVVRPPGHHAEESTPMGFCYFNSVAVAAKLLQQRLSVSKILIVDWDVHHGNGTQQAFYSDPSVLYMSLHRYDDGNFFPGSGAPDEVGTGPGVGFNVNMAFTGGLDPPMGDAEYLAAFRTVVMPIASEFAPDVVLVSSGFDAVEGHPTPLGGYNLSARCFGYLTKQLMGLAGGRIVLALEGGHDLTAICDASEACVSALLGNELDPLPEKVLQQRPNANAVRSMEKVMEIHSKYWRCLQRTTSTAGRSLIEAQTCENEEAETVTAMASLSVGVKPAEKRPDEEPMEEEPPL
notes: range 612-1084; also called recombinant fusion protein corresponding to the catalytically active domain of HDAC4; not shown: glutathione-S-transferase (GST), fusion partner

For data set [1], the target named is T1, endogenous HDAC3, O15379.
T1 chain: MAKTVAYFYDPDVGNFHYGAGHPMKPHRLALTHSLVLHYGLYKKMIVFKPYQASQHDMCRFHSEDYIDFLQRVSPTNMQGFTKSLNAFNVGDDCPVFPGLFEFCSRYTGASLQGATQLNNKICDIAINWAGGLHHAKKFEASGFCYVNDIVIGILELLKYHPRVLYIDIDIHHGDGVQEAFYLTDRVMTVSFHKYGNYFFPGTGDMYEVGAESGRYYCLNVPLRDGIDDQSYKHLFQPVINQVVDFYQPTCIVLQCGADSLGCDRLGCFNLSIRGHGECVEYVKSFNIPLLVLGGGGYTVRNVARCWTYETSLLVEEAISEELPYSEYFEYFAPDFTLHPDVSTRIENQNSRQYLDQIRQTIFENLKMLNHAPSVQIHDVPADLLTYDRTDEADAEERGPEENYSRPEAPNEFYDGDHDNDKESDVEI

Data set [2] deals with B2. Briefly: cell-based or functional assay.
In data set [3] the target is B3. In words: repeated incubation of 293 or SupT1 extracts with the GST fusion, western blot of the depleted extract.
In data set [4] the target is endogenous HDAC1 (UniProt Q13547 1-482). The description is as above.
Sequence of endogenous HDAC1 (Q13547 whole entry): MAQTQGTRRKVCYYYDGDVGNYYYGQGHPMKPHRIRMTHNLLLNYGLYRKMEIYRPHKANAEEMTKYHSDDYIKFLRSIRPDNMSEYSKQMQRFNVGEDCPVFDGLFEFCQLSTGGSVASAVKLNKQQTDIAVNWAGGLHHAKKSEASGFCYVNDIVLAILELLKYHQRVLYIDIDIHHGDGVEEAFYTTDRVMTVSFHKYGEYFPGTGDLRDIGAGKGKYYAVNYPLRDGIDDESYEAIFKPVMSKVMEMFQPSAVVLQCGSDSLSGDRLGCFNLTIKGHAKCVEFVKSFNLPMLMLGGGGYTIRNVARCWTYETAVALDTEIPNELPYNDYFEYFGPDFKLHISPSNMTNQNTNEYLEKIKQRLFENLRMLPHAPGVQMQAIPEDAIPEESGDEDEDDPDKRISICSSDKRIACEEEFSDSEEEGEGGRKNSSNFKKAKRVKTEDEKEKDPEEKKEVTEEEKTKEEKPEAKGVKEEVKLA
Data set [5] concerns the target B2. In words: GST pull-down from SupT1 cell extracts, western blot. (In general: Immunoblotting shows a protein as a band on a membrane.)
Data set [6] concerns the target T2, FLAG-tagged HDAC7-K86AK88A (expressed in DO11.10 cells) (human, UniProt Q8WUI4 1-952).
T2 construct: not shown: FLAG tag
T2 sequence: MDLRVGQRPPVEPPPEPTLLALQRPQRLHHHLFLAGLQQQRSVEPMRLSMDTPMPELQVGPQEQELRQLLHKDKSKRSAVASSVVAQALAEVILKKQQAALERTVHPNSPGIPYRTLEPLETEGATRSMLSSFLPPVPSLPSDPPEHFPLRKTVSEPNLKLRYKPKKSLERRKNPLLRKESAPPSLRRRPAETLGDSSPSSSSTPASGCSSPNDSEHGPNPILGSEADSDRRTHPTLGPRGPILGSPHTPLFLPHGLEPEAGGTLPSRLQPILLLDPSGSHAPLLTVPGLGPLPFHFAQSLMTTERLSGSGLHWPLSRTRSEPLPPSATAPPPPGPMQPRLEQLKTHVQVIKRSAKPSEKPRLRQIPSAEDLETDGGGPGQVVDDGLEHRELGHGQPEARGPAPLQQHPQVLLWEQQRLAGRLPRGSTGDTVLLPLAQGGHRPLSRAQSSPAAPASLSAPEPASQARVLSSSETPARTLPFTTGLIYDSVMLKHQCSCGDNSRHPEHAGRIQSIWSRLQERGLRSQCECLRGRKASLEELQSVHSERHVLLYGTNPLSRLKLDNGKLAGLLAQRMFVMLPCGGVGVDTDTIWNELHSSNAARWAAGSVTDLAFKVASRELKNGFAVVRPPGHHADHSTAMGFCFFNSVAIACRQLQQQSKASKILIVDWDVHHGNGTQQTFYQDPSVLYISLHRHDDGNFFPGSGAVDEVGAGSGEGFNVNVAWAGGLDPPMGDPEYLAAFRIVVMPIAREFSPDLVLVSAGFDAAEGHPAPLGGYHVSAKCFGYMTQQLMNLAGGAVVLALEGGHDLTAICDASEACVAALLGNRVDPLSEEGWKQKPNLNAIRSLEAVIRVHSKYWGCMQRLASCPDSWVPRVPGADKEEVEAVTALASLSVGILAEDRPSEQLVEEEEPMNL
Briefly: anti-FLAG immunoprecipitation from DO11.10 polyclonal cell lines, endogenous MEF2D.

The target of data set [7] is T3, FLAG-tagged HDAC7-ΔMEF (expressed in DO11.10 cells) (human, UniProt Q8WUI4 1-952).
T3 construct: not shown: FLAG tag
T3 sequence: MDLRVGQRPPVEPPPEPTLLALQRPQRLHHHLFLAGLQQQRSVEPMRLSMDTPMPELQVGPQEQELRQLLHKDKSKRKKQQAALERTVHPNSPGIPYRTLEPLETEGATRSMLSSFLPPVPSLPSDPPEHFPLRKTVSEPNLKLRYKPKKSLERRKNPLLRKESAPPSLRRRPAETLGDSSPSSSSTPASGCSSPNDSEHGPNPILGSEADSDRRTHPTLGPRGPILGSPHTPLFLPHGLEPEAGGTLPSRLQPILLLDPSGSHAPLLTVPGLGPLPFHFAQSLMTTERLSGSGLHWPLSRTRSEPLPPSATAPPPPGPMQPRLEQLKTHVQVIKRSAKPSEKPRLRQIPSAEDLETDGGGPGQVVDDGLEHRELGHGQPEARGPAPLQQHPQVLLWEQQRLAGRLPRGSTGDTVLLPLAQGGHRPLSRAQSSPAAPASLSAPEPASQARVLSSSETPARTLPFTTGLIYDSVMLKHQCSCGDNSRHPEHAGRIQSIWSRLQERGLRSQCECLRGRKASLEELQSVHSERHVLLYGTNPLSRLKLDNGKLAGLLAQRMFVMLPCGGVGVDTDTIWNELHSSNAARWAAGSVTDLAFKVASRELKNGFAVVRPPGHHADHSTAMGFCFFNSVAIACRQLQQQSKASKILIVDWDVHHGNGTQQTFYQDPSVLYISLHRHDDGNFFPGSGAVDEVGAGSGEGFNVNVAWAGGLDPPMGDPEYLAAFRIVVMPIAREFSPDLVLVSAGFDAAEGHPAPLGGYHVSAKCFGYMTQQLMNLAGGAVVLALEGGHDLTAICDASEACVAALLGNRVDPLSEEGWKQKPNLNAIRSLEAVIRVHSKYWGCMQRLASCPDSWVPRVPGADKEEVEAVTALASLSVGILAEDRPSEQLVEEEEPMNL
The data set is described as above.

B1: HDAC7-FLAG (full-length human HDAC7 with C-terminal FLAG tag, expressed in cells) (protein)
chain: MDLRVGQRPPVEPPPEPTLLALQRPQRLHHHLFLAGLQQQRSVEPMRLSMDTPMPELQVGPQEQELRQLLHKDKSKRSAVASSVVKQKLAEVILKKQQAALERTVHPNSPGIPYRTLEPLETEGATRSMLSSFLPPVPSLPSDPPEHFPLRKTVSEPNLKLRYKPKKSLERRKNPLLRKESAPPSLRRRPAETLGDSSPSSSSTPASGCSSPNDSEHGPNPILGSEADSDRRTHPTLGPRGPILGSPHTPLFLPHGLEPEAGGTLPSRLQPILLLDPSGSHAPLLTVPGLGPLPFHFAQSLMTTERLSGSGLHWPLSRTRSEPLPPSATAPPPPGPMQPRLEQLKTHVQVIKRSAKPSEKPRLRQIPSAEDLETDGGGPGQVVDDGLEHRELGHGQPEARGPAPLQQHPQVLLWEQQRLAGRLPRGSTGDTVLLPLAQGGHRPLSRAQSSPAAPASLSAPEPASQARVLSSSETPARTLPFTTGLIYDSVMLKHQCSCGDNSRHPEHAGRIQSIWSRLQERGLRSQCECLRGRKASLEELQSVHSERHVLLYGTNPLSRLKLDNGKLAGLLAQRMFVMLPCGGVGVDTDTIWNELHSSNAARWAAGSVTDLAFKVASRELKNGFAVVRPPGHHADHSTAMGFCFFNSVAIACRQLQQQSKASKILIVDWDVHHGNGTQQTFYQDPSVLYISLHRHDDGNFFPGSGAVDEVGAGSGEGFNVNVAWAGGLDPPMGDPEYLAAFRIVVMPIAREFSPDLVLVSAGFDAAEGHPAPLGGYHVSAKCFGYMTQQLMNLAGGAVVLALEGGHDLTAICDASEACVAALLGNRVDPLSEEGWKQKPNLNAIRSLEAVIRVHSKYWGCMQRLASCPDSWVPRVPGADKEEVEAVTALASLSVGILAEDRPSEQLVEEEEPMNL
On to B1, for which, in data set [1], the “HDAC activity, nuclear against cytoplasmic fraction” value is 4.5 times higher. In addition, in data set [2], the HDAC activity of HDAC7-FLAG immunoprecipitated from the cytoplasmic fraction of 293 cells came to 3240 counts/min and the HDAC activity of HDAC7-FLAG immunoprecipitated from the nuclear fraction of 293 cells was determined as 14800 counts/min. Turning to B2, the binding result in data set [3] was “binds”. Turning to B3, the binding result in data set [4] is “no binding”. In addition, the HDAC activity associated with the GST pull-down from GST-HDAC4 depleted lysate against GST depleted lysate (fold reduction) in data set [1] was determined as 3.

B4: GST-HDAC7(aa 487-912) (enzyme)
chain: YDSVMLKHQCSCGDNSRHPEHAGRIQSIWSRLQERGLRSQCECLRGRKASLEELQSVHSERHVLLYGTNPLSRLKLDNGKLAGLLAQRMFVMLPCGGVGVDTDTIWNELHSSNAARWAAGSVTDLAFKVASRELKNGFAVVRPPGHHADHSTAMGFCFFNSVAIACRQLQQQSKASKILIVDWDVHHGNGTQQTFYQDPSVLYISLHRHDDGNFFPGSGAVDEVGAGSGEGFNVNVAWAGGLDPPMGDPEYLAAFRIVVMPIAREFSPDLVLVSAGFDAAEGHPAPLGGYHVSAKCFGYMTQQLMNLAGGAVVLALEGGHDLTAICDASEACVAALLGNRVDPLSEEGWKQKPNLNAIRSLEAVIRVHSKYWGCMQRLASCPDSWVPRVPGADKEEVEAVTALASLSVGILAEDRPSEQLVEEEEP
notes: not shown: glutathione-S-transferase (GST) of the pGEX4T1 vector (Pharmacia), N-terminal fusion partner
On to B4, for which the binding result in data set [5] is reported as “no binding”.

B5: endogenous MEF2D of DO11.10 T-cell hybridoma cells (other, UniProt Q63943 1-514, looked up)
chain: MGRKKIQIQRITDERNRQVTFTKRKFGLMKKAYELSVLCDCEIALIIFNHSNKLFQYASTDMDKVLLKYTEYNEPHESRTNADIIETLRKKGFNGCDSPEPDGEDSLEQSPLLEDKYRRASEELDGLFRRYGSSVPAPNFAMPVTVPVSNQSSMQFSNPSSSLVTPSLVTSSLTDPRLLSPQQPALQRNSVSPGLPQRPASAGAMLGGDLNSANGACPSPVGNGYVSARASPGLLPVANGNSLNKVIPAKSPPPPTHNTQLGAPSRKPDLRVITSQGGKGLMHHLTEDHLDLNNAQRLGVSQSTHSLTTPVVSVATPSLLSQGLPFSSMPTAYNTDYQLPSAELSSLPAFSSPAGLALGNVTAWQQPQPPQQPQPPQPPQSQPQPPQPQPQQPPQQQPHLVPVSLSNLIPGSPLPHVGAALTVTTHPHISIKSEPVSPSRERSPAPPPPAVFPAARPEPGEGLSSPAGGSYETGDRDDGRGDFGPTLGLLRPAPEPEAEGSAVKRMRLDTWTLK
As to B5, the binding result in data set [6] and in data set [7] was “no binding” in each case.
